Data set [1] relates to HeLa Kyoto. In words: solubility in G1/S (NP-40 vs SDS abundance) (log2 ratio); higher = more soluble. As to conditions: cell cycle stage: G1/S.
The subject of data set [2] is HeLa Kyoto. In words: melting temperature (median over replicates), in situ; higher = more thermally stable.
The test system of data set [3] is HeLa Kyoto. Description: solubility change mitosis vs G1/S (difference of NP-40 vs SDS log2 ratios) (log2 ratio difference); higher = more soluble in mitosis.
Data set [4] has as its system HeLa Kyoto. In words: thermal stability score vs G1/S (z-score of summed log2 fold changes over temperatures); higher = more thermally stable than in G1/S.
[5] abbreviates: cell cycle stage: early G1 (4.5 h after nocodazole release).
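Wherever melting temperature (median over replicates), in situ is given: HeLa Kyoto cells synchronized by double thymidine or nocodazole block, proteins quantified by TMT10plex mass spectrometry, three independent biological replicates.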
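Wherever solubility change mitosis vs G1/S (difference of NP-40 vs SDS log2 ratios) is given: synchronized HeLa Kyoto cells (double thymidine block for G1/S, nocodazole release for mitosis), protein amounts in NP-40 versus SDS lysates quantified by mass spectrometry, three biological replicates.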
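Wherever solubility in G1/S (NP-40 vs SDS abundance) is given: HeLa Kyoto cells arrested at G1/S by double thymidine block, proteins quantified by TMT10plex mass spectrometry in mild NP-40 versus SDS extracts, three biological replicates.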
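Wherever thermal stability score vs G1/S (z-score of summed log2 fold changes over temperatures) is given: synchronized HeLa Kyoto cells, proteins quantified by TMT10plex mass spectrometry, three biological replicates, mitosis taken 0.5 h after nocodazole release, G1/S directly after double thymidine block.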

In the case of “MLHLSAAPPAPPPEVTATARPCLCSVGRRGDGGKMAAAGALERSFVELSGAERERPRHFREFTVCSIGTANAVAGAVKYSESAGGFYYVESGKLFSVTRNRFIHWKTSGDTLELMEESLDINLLNNAIRLKFQNCSVLPGGVYVSETQNRVIILMLTNQTVHRLLLPHPSRMYRSELVVDSQMQSIFTDIGKVDFTDPCNYQLIPAVPGISPNSTASTAWLSSDGEALFALPCASGGIFVLKLPPYDIPGMVSVVELKQSSVMQRLLTGWMPTAIRGDQSPSDRPLSLAVHCVEHDAFIFALCQDHKLRMWSYKEQMCLMVADMLEYVPVKKDLRLTAGTGHKLRLAYSPTMGLYLGIYMHAPKRGQFCIFQLVSTESNRYSLDHISSLFTSQETLIDFALTSTDIWALWHDAENQTVVKYINFEHNVAGQWNPVFMQPLPEEEIVIRDDQDPREMYLQSLFTPGQFTNEALCKALQIFCRGTERNLDLSWSELKKEVTLAVENELQGSVTEYEFSQEEFRNLQQEFWCKFYACCLQYQEALSHPLALHLNPHTNMVCLLKKGYLSFLIPSSLVDHLYLLPYENLLTEDETTISDDVDIARDVICLIKCLRLIEESVTVDMSVIMEMSCYNLQSPEKAAEQILEDMITIDVENVMEDICSKLQEIRNPIHAIGLLIREMDYETEVEMEKGFNPAQPLNIRMNLTQLYGSNTAGYIVCRGVHKIASTRFLICRDLLILQQLLMRLGDAVIWGTGQLFQAQQDLLHRTAPLLLSYYLIKWGSECLATDVPLDTLESNLQHLSVLELTDSGALMANRFVSSPQTIVELFFQEVARKHIISHLFSQPKAPLSQTGLNWPEMITAITSYLLQLLWPSNPGCLFLECLMGNCQYVQLQDYIQLLHPWCQVNVGSCRFMLGRCYLVTGEGQKALECFCQAASEVGKEEFLDRLIRSEDGEIVSTPRLQYYDKVLRLLDVIGLPELVIQLATSAITEAGDDWKSQATLRTCIFKHHLDLGHNSQAYEALTQIPDSSRQLDCLRQLVVVLCERSQLQDLVEFPYVNLHNEVVGIIESRARAVDLMTHNYYELLYAFHIYRHNYRKAGTVMFEYGMRLGREVRTLRGLEKQGNCYLAALNCLRLIRPEYAWIVQPVSGAVYDRPGASPKRNHDGECTAAPTNRQIEILELEDLEKECSLARIRLTLAQHDPSAVAVAGSSSAEEMVTLLVQAGLFDTAISLCQTFKLPLTPVFEGLAFKCIKLQFGGEAAQAEAWAWLAANQLSSVITTKESSATDEAWRLLSTYLERYKVQNNLYHHCVINKLLSHGVPLPNWLINSYKKVDAAELLRLYLNYDLLEEAVDLVSEYVDAVLGKGHQYFGIEFPLSATAPMVWLPYSSIDQLLQALGENSANSHNIALSQKILDKLEDYQQKVDKATRDLLYRRTL [NUP160]”, the “solubility in G1/S (log2)” value in the data set on HeLa Kyoto [1] is -0.58. Further, the melting temperature in the data set on HeLa Kyoto [2] (cell cycle stage: G1/S) worked out at 52.1 °C; in the data set on HeLa Kyoto [2] (cell cycle stage: mitosis), 49.4 °C. For the same sequence, the “solubility change mitosis (log2)” value with HeLa Kyoto [3] amounted to 0.135. Further, the figures for the thermal stability score with HeLa Kyoto [4] (setting [5]) and with HeLa Kyoto [4] (cell cycle stage: mitosis) were -3.22 and -3.66, respectively.
As to “MLKALFLTMLTLALVKSQDTEETITYTQCTDGYEWDPVRQQCKDIDECDIVPDACKGGMKCVNHYGGYLCLPKTAQIIVNNEQPQQETQPAEGTSGATTGVVAASSMATSGVLPGGGFVASAAAVAGPEMQTGRNNFVIRRNPADPQRIPSNPSHRIQCAAGYEQSEHNVCQDIDECTAGTHNCRADQVCINLRGSFACQCPPGYQKRGEQCVDIDECTIPPYCHQRCVNTPGSFYCQCSPGFQLAANNYTCVDINECDASNQCAQQCYNILGSFICQCNQGYELSSDRLNCEDIDECRTSSYLCQYQCVNEPGKFSCMCPQGYQVVRSRTCQDINECETTNECREDEMCWNYHGGFRCYPRNPCQDPYILTPENRCVCPVSNAMCRELPQSIVYKYMSIRSDRSVPSDIFQIQATTIYANTINTFRIKSGNENGEFYLRQTSPVSAMLVLVKSLSGPREHIVDLEMLTVSSIGTFRTSSVLRLTIIVGPFSF [EFEMP1]”, the “solubility in G1/S (log2)” value in the data set on HeLa Kyoto [1] is -0.278. Besides, the melting temperature with HeLa Kyoto [2] (cell cycle stage: G1/S) stood at 54.2 °C; in the data set on HeLa Kyoto [2] (cell cycle stage: mitosis), 54.1 °C. In the data set on HeLa Kyoto [3], the “solubility change mitosis (log2)” value was -0.165. Besides, the thermal stability score amounted to 4.52 in the data set with HeLa Kyoto [4] (setting [5]) and 3.96 in the data set with HeLa Kyoto [4] (cell cycle stage: mitosis).
Regarding “MLKFRTVHGGLRLLGIRRTSTAPAASPNVRRLEYKPIKKVMVANRGEIAIRVFRACTELGIRTVAIYSEQDTGQMHRQKADEAYLIGRGLAPVQAYLHIPDIIKVAKENNVDAVHPGYGFLSERADFAQACQDAGVRFIGPSPEVVRKMGDKVEARAIAIAAGVPVVPGTDAPITSLHEAHEFSNTYGFPIIFKAAYGGGGRGMRVVHSYEELEENYTRAYSEALAAFGNGALFVEKFIEKPRHIEVQILGDQYGNILHLYERDCSIQRRHQKVVEIAPAAHLDPQLRTRLTSDSVKLAKQVGYENAGTVEFLVDRHGKHYFIEVNSRLQVEHTVTEEITDVDLVHAQIHVAEGRSLPDLGLRQENIRINGCAIQCRVTTEDPARSFQPDTGRIEVFRSGEGMGIRLDNASAFQGAVISPHYDSLLVKVIAHGKDHPTAATKMSRALAEFRVRGVKTNIAFLQNVLNNQQFLAGTVDTQFIDENPELFQLRPAQNRAQKLLHYLGHVMVNGPTTPIPVKASPSPTDPVVPAVPIGPPPAGFRDILLREGPEGFARAVRNHPGLLLMDTTFRDAHQSLLATRVRTHDLKKIAPYVAHNFSKLFSMENWGGATFDVAMRFLYECPWRRLQELRELIPNIPFQMLLRGANAVGYTNYPDNVVFKFCEVAKENGMDVFRVFDSLNYLPNMLLGMEAAGSAGGVVEAAISYTGDVADPSRTKYSLQYYMGLAEELVRAGTHILCIKDMAGLLKPTACTMLVSSLRDRFPDLPLHIHTHDTSGAGVAAMLACAQAGADVVDVAADSMSGMTSQPSMGALVACTRGTPLDTEVPMERVFDYSEYWEGARGLYAAFDCTATMKSGNSDVYENEIPGGQYTNLHFQAHSMGLGSKFKEVKKAYVEANQMLGDLIKVTPSSKIVGDLAQFMVQNGLSRAEAEAQAEELSFPRSVVEFLQGYIGVPHGGFPEPFRSKVLKDLPRVEGRPGASLPPLDLQALEKELVDRHGEEVTPEDVLSAAMYPDVFAHFKDFTATFGPLDSLNTRLFLQGPKIAEEFEVELERGKTLHIKALAVSDLNRAGQRQVFFELNGQLRSILVKDTQAMKEMHFHPKALKDVKGQIGAPMPGKVIDIKVVAGAKVAKGQPLCVLSAMKMETVVTSPMEGTVRKVHVTKDMTLEGDDLILEIE [PC]”, the “solubility in G1/S (log2)” value in the data set on HeLa Kyoto [1] was -0.0111. Moreover, the values for the melting temperature with HeLa Kyoto [2] (cell cycle stage: G1/S) and in the data set on HeLa Kyoto [2] (cell cycle stage: mitosis) were 51.4 °C and 51.5 °C, respectively. Moreover, the “solubility change mitosis (log2)” value with HeLa Kyoto [3] is -0.101. The values for the thermal stability score in the data set on HeLa Kyoto [4] (setting [5]) and with HeLa Kyoto [4] (cell cycle stage: mitosis) were -1.77 and -2.7, respectively.
For the sequence “MLKQILSEMYIDPDLLAELSEEQKQILFFKMREEQIRRWKEREAAMERKESLPVKPRPKKENGKSVHWKLGADKEVWVWVMGEHHLDKPYDVLCNEIIAERARLKAEQEAEEPRKTHSEEFTNSLKTKSQYHDLQAPDNQQTKDIWKKVAEKEELEQGSRPAPTLEEEKIRSLSSSSRNIQQMLADSINRMKAYAFHQKKESMKKKQDEEINQIEEERTKQICKSWKEDSEWQASLRKSKAADEKRRSLAKQAREDYKRLSLGAQKGRGGERLQSPLRVPQKPERPPLPPKPQFLNSGAYPQKPLRNQGVVRTLSSSAQEDIIRWFKEEQLPLRAGYQKTSDTIAPWFHGILTLKKANELLLSTGMPGSFLIRVSERIKGYALSYLSEDGCKHFLIDASADAYSFLGVDQLQHATLADLVEYHKEEPITSLGKELLLYPCGQQDQLPDYLELFE [SH2D4A]”, the “solubility in G1/S (log2)” value with HeLa Kyoto [1] was determined as 0.308. The results for the melting temperature with HeLa Kyoto [2] (cell cycle stage: G1/S) and with HeLa Kyoto [2] (cell cycle stage: mitosis) were 49 °C and 49.5 °C, respectively. In addition, in the data set on HeLa Kyoto [3], the “solubility change mitosis (log2)” value is -0.0397. Also, the thermal stability score was -0.202 with HeLa Kyoto [4] (setting [5]) and 0.42 with HeLa Kyoto [4] (cell cycle stage: mitosis).
On to “MLKSKTFLKKTRAGGVMKIVREHYLRDDIGCGAPGCAACGGAHEGPALEPQPQDPASSVCPQPHYLLPDTNVLLHQIDVLEDPAIRNVIVLQTVLQEVRNRSAPVYKRIRDVTNNQEKHFYTFTNEHHRETYVEQEQGENANDRNDRAIRVAAKWYNEHLKKMSADNQLQVIFITNDRRNKEKAIEEGIPAFTCEEYVKSLTANPELIDRLACLSEEGNEIESGKIIFSEHLPLSKLQQGIKSGTYLQGTFRASRENYLEATVWIHGDNEENKEIILQGLKHLNRAVHEDIVAVELLPKSQWVAPSSVVLHDEGQNEEDVEKEEETERMLKTAVSEKMLKPTGRVVGIIKRNWRPYCGMLSKSDIKESRRHLFTPADKRIPRIRIETRQASTLEGRRIIVAIDGWPRNSRYPNGHFVRNLGDVGEKETETEVLLLEHDVPHQPFSQAVLSFLPKMPWSITEKDMKNREDLRHLCICSVDPPGCTDIDDALHCRELENGNLEVGVHIADVSHFIRPGNALDQESARRGTTVYLCEKRIDMVPELLSSNLCSLKCDVDRLAFSCIWEMNHNAEILKTKFTKSVINSKASLTYAEAQLRIDSANMNDDITTSLRGLNKLAKILKKRRIEKGALTLSSPEVRFHMDSETHDPIDLQTKELRETNSMVEEFMLLANISVAKKIHEEFSEHALLRKHPAPPPSNYEILVKAARSRNLEIKTDTAKSLAESLDQAESPTFPYLNTLLRILATRCMMQAVYFCSGMDNDFHHYGLASPIYTHFTSPIRRYADVIVHRLLAVAIGADCTYPELTDKHKLADICKNLNFRHKMAQYAQRASVAFHTQLFFKSKGIVSEEAYILFVRKNAIVVLIPKYGLEGTVFFEEKDKPNPQLIYDDEIPSLKIEDTVFHVFDKVKVKIMLDSSNLQHQKIRMSLVEPQIPGISIPTDTSNMDLNGPKKKKMKLGK [DIS3]”, for which the “solubility in G1/S (log2)” value with HeLa Kyoto [1] was -0.0366. The results for the melting temperature in the data set with HeLa Kyoto [2] (cell cycle stage: G1/S) and in the data set with HeLa Kyoto [2] (cell cycle stage: mitosis) were 47.9 °C and 49.2 °C, respectively. Moreover, the “solubility change mitosis (log2)” value in the data set on HeLa Kyoto [3] is -0.0946. The thermal stability score was found to be 1.5 in the data set on HeLa Kyoto [4] (setting [5]) and 3.37 in the data set on HeLa Kyoto [4] (cell cycle stage: mitosis).
